# Reference: US20220293215A1 (BROAD INSTITUTE, published 2022)
# T1: I-A^b (MHCII) of murine bone marrow-derived dendritic cells from C57BL/6J mice (mouse, UniProt P14434 24-256; P14483 28-265)
# T1 construct: whole, on cells; also called H2-IA
# T1 sequence (MHC II alpha, looked up): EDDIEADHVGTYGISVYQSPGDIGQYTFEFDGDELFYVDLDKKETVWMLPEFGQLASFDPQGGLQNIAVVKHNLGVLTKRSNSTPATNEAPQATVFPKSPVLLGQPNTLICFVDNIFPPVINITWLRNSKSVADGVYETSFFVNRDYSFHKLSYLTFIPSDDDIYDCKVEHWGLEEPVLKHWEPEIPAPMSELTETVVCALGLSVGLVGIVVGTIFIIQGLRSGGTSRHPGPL
# T1 sequence (MHC II beta, looked up): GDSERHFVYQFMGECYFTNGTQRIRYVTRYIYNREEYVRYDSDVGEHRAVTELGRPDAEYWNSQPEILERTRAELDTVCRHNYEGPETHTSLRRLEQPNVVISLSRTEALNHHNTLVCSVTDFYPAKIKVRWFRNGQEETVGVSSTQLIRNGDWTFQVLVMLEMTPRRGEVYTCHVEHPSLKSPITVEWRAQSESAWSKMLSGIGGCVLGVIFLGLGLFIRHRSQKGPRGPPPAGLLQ
# Target: T1, I-A^b (MHCII) of murine bone …
# Assay: MHCII peptidomics: Y3P IP of peptide-MHCII from BMDCs exposed to live Listeria, iTRAQ LC-MS/MS
binder,measurement,value
IAVTAFAAPTIASA (also called lmo0582b_12-25) [Listeria peptide IAVTAFAAPTIASA (lmo0582 (lap))],logFC,"0.181 log2 fold change, Listeria 6 hr versus 10 min"
ADFRYVFDTAKATAASSYPGSDETPP [Listeria peptide ADFRYVFDTAKATAASSYPGSDETPP (lmo2185)],logFC,"1.56 log2 fold change, Listeria 6 hr versus 10 min"
EAKELVDNAPKALKEGIA [Listeria peptide EAKELVDNAPKALKEGIA (lmo0251 (rplL))],logFC,"0.93 log2 fold change, Listeria 6 hr versus 10 min"
YVFDTAKATAASSYPGSDETPP [Listeria peptide YVFDTAKATAASSYPGSDETPP (lmo2185)],logFC,"0.611 log2 fold change, Listeria 6 hr versus 10 min"
DFRYVFDTAKATAASSYPGSDETPP [Listeria peptide DFRYVFDTAKATAASSYPGSDETPP (lmo2185)],logFC,"0.678 log2 fold change, Listeria 6 hr versus 10 min"
TTVKFTLPTVAPAFENT [Listeria peptide TTVKFTLPTVAPAFENT (lmo0135)],logFC,"0.0598 log2 fold change, Listeria 6 hr versus 10 min"
VETKADIDALSLLSDKIFVTNQT [Listeria peptide VETKADIDALSLLSDKIFVTNQT (lmo1451 (ispH))],logFC,"1.06 log2 fold change, Listeria 6 hr versus 10 min"
VDDTTVKFTLPTVAPAFENT (also called lmo0135_150-169) [Listeria peptide VDDTTVKFTLPTVAPAFENT (lmo0135)],logFC,"0.844 log2 fold change, Listeria 6 hr versus 10 min"
YPGSDETPPVVNPGE [Listeria peptide YPGSDETPPVVNPGE (lmo2185)],logFC,"0.785 log2 fold change, Listeria 6 hr versus 10 min"
YPGSDETPPVVNPGETN [Listeria peptide YPGSDETPPVVNPGETN (lmo2185)],logFC,"1.86 log2 fold change, Listeria 6 hr versus 10 min"
KEKVVATPVSNVSTSS [Listeria peptide KEKVVATPVSNVSTSS (lmo0186)],logFC,"-0.21 log2 fold change, Listeria 6 hr versus 10 min"
GGINQAYTGSTALSDG [Listeria peptide GGINQAYTGSTALSDG (lmo2360)],logFC,"0.239 log2 fold change, Listeria 6 hr versus 10 min"
GTKEKVVATPVSNVST [Listeria peptide GTKEKVVATPVSNVST (lmo0186)],logFC,"0.0371 log2 fold change, Listeria 6 hr versus 10 min"
APGQETQHYYGLPVADSAIDR (also called lmo2558_533-553) [Listeria peptide APGQETQHYYGLPVADSAIDR (lmo2558 (ami))],logFC,"0.856 log2 fold change, Listeria 6 hr versus 10 min"
VDDTTVKFTLPTVAPAFE [Listeria peptide VDDTTVKFTLPTVAPAFE (lmo0135)],logFC,"0.455 log2 fold change, Listeria 6 hr versus 10 min"
DDTTVKFTLPTVAPAFEN [Listeria peptide DDTTVKFTLPTVAPAFEN (lmo0135)],logFC,"0.26 log2 fold change, Listeria 6 hr versus 10 min"
GTKEKVVATPVSNVSTSSA (also called lmo0186_285-303) [Listeria peptide GTKEKVVATPVSNVSTSSA (lmo0186)],logFC,"0.489 log2 fold change, Listeria 6 hr versus 10 min"
DDTTVKFTLPTVAPAFE [Listeria peptide DDTTVKFTLPTVAPAFE (lmo0135)],logFC,"0.387 log2 fold change, Listeria 6 hr versus 10 min"
DDTTVKFTLPTVAPAFENT [Listeria peptide DDTTVKFTLPTVAPAFENT (lmo0135)],logFC,"0.786 log2 fold change, Listeria 6 hr versus 10 min"
AVDDTTVKFTLPTVAPAFENTIK [Listeria peptide AVDDTTVKFTLPTVAPAFENTIK (lmo0135)],logFC,"0.464 log2 fold change, Listeria 6 hr versus 10 min"
TKEKVVATPVSNVSTSS [Listeria peptide TKEKVVATPVSNVSTSS (lmo0186)],logFC,"-0.286 log2 fold change, Listeria 6 hr versus 10 min"
GINQAYTGSTALSDG [Listeria peptide GINQAYTGSTALSDG (lmo2360)],logFC,"0.261 log2 fold change, Listeria 6 hr versus 10 min"
RYVFDTAKATAASSYPGSDETPPVVNPGETNPP [Listeria peptide RYVFDTAKATAASSYPGSDETPPVVNPGETNPP (lmo2185)],logFC,"0.634 log2 fold change, Listeria 6 hr versus 10 min"
GGINQAYTGSTALSDGLN (also called lmo2360_289-306) [Listeria peptide GGINQAYTGSTALSDGLN (lmo2360)],logFC,"0.555 log2 fold change, Listeria 6 hr versus 10 min"
STVVVEAGDTLWGIAQSKGTT (also called lmo0582a_26-46) [Listeria peptide STVVVEAGDTLWGIAQSKGTT (lmo0582 (lap))],logFC,"0.489 log2 fold change, Listeria 6 hr versus 10 min"
RYVFDTAKATAASSYPGSDETPP [Listeria peptide RYVFDTAKATAASSYPGSDETPP (lmo2185)],logFC,"0.271 log2 fold change, Listeria 6 hr versus 10 min"
SSYPGSDETPPVVNPGETNPP [Listeria peptide SSYPGSDETPPVVNPGETNPP (lmo2185)],logFC,"0.292 log2 fold change, Listeria 6 hr versus 10 min"
ADFRYVFDTAKATAASSYPG (also called lmo2185_293-312) [Listeria peptide ADFRYVFDTAKATAASSYPG (lmo2185)],logFC,"1.57 log2 fold change, Listeria 6 hr versus 10 min"
DGLTWHDGKPLTADDV [Listeria peptide DGLTWHDGKPLTADDV (lmo0135)],logFC,"1.02 log2 fold change, Listeria 6 hr versus 10 min"
AVDDTTVKFTLPTVAPAFENT [Listeria peptide AVDDTTVKFTLPTVAPAFENT (lmo0135)],logFC,"0.871 log2 fold change, Listeria 6 hr versus 10 min"
